This note sets out measurements from paper PMC8416954.

Assay [1] has as its target ectodomain of human syndecan-4 (natural isoform 2 of SDC-4) (human). Kind of assay: ion mobility mass spectrometry.
The target is the same in assay [2]. The assay is described as follows: SEC-MALS.

Regarding “ectodomain of human syndecan-4 (natural isoform 2 of SDC-4) (domain or fragment)”, the stoichiometry N in assay [1] and in assay [2] was 2 throughout.
